Test results taken from US6964763 (CORNELL RESEARCH FOUNDATION, dated 2005).

B1: RANTES (regulated on activation normal T expressed and secreted protein) (ligand, UniProt P13501 24-91, looked up)
chain: SPYSSDTTPCCFAYIARPLPRAHIKEYFYTSGKCSNPAVVFVTRKNRQVCANPEKKWVREYINSLEMS
B2: Purified human calcium-replete thrombospondin-1 (TSP1) from thrombin-activated platelets (ligand)
chain: not shown
notes: mature; also called purified platelet TSP1

Columns and labels:
[1] = target: B2; assay: solid phase binding, 125I-RANTES on immobilized TSP1; saturatable, biphasic
Description: (§1) Washed wells were blocked with 0.5% bovine serum albumin ("BSA"), then incubated in triplicate with soluble radiolabeled ligand for 2.5 hours at 37° C. After extensive washing in 50 mM Tris pH 7.5, 150 mM NaCl, 0.5% Tween-20 (TBS-Tween), bound radioactivity was quantified by gamma counter. […] Specific binding was determined as quenchable in the presence of excess unlabeled ligand, above background binding to BSA-coated wells.

[2] = target: T1, CHO cell-expressed soluble recombinant CD4 (UniProt P01730 26-394); assay: solid phase binding, 125I-CD4 on immobilized TSP1
T1 construct: also called soluble CD4
Description: as §1

Row | Binder | EC50 [1] | binding result [2]
1 | B1 | ~330 nM | –
2 | B2 | – | binds
